Article PMC10126545

Key:
[1] = target: COBRA P1 HA N127D mutant, CHO expressed, for binding assays; experiment: BLI; Octet RED384; HA loaded on anti-Penta-His biosensors (10 μg/mL), Fab 1F8 15 nM to 0.556 nM in solution; PBS, 1% BSA, 0.05% Tween 20; 30 °C; 1:1 model with mass transport limitation; mean of two independent experiments
[2] = target: COBRA P1 HA wild type, CHO expressed, for binding assays; experiment: as above

B1: Fab 1F8 (recombinant Fab of the P1-elicited mouse monoclonal antibody 1F8) (Fab, V domains shown)
VH: QVQLQQSGAELMKPGASVKISCKATGYTFSSYWIEWVKQRPGHGLEWIGEILPGSGRTNYDERFKGKATFTADTSSNTAYMQLSSLTSEDSAVYYCARPRIYGMDYWGQGTSVTVSS
VL: DIVLTQSPASLAVSLGQRATISCKASQSVDFDGDTYMSWYQQKPGQPPKLLIYAASKLESGIPARFSGSGSGTDFTLNIHPVEEEDAATYFCQQSNEDPWTFGGGTKLEIK
- Kd [1]: 0.86 nM
- Kd [2]: 2.95 nM
